Laboratory results: paper PMC6379965, “Expression and activity of the calcitonin receptor family in a sample of primary human high-grade gliomas” (BMC Cancer, 2019)
Like-named read-outs stand apart in the source and are kept apart here. One block for each molecule: values may come before it. Ends that are not written are not given here.

How the values were obtained:
PB1 cell line [1] = assay: Ca2+ mobilization, PB1; assay type: cell-based, human; settings: Fluo4-AM, FlexStation, 37 °C, pH 7.4, peak RFU, ATP 10 μM, ionomycin 1 μM, representative experiment, 3 replicates
Description: (§3) Primary patient high-grade glioma (HGG) cell lines, in vitro surrogates of glioblastoma, were developed by QIMR-Berghofer Medical Research Institute (Brisbane, Australia) and represent 3 distinct GBM subtypes: SB2b and PB1 (classical), JK2 (proneural) and WK1(mesenchymal) [37], who supplied these directly for this study. GBM cell lines were cultured as adherent monolayers on matrigel (BD Biosciences)-coated flasks using StemPro NSC SFM serum free cell culture medium (Thermo Fisher Scientific) supplemented with 20 ng/ml EGF and 20 ng/ml FGFb, 1% D-glutamine and 1% of penicillin/ streptomycin (further referred as StemPro complete medium).
(§4) GBM cell lines were seeded at 38000 cells/well (SB2b) or 35,000 cells/well (PB1 and WK1) in 96-well matrigel-coated plates and incubated for 24 h at 37 °C, 5% CO2 in humidified incubator in StemPro complete medium. […] Cells were incubated at 37°C for 60 min before ligand addition and detection of Ca^2+ mobilisation in a FlexStation 3 (Molecular Devices).

SB2b cell line = assay: Ca2+ mobilization, SB2b; assay type: cell-based, human; settings: Fluo4-AM, FlexStation, 37 °C, pH 7.4, peak RFU, ATP 10 μM, ionomycin 1 μM, representative experiment, 3 replicates
Description: as §3, §4

WK1 cell line [2] = assay: Ca2+ mobilization, WK1; assay type: cell-based, human; settings: Fluo4-AM, FlexStation, 37 °C, pH 7.4, peak RFU, ATP 10 μM, ionomycin 1 μM, representative experiment, 3 replicates
Description: as §3, §4

WK1 cell line [3] = assay: cAMP accumulation, CTR agonists, WK1; assay type: cell-based, human; settings: 1 μM forskolin
Description: (§1) Primary patient high-grade glioma (HGG) cell lines, in vitro surrogates of glioblastoma, were developed by QIMR-Berghofer Medical Research Institute (Brisbane, Australia) and represent 3 distinct GBM subtypes: SB2b and PB1 (classical), JK2 (proneural) and WK1(mesenchymal), who supplied these directly for this study. GBM cell lines were cultured as adherent monolayers on matrigel (BD Biosciences)-coated flasks using StemPro NSC SFM serum free cell culture medium (Thermo Fisher Scientific) supplemented with 20 ng/ml EGF and 20 ng/ml FGFb, 1% D-glutamine and 1% of penicillin/ streptomycin (further referred as StemPro complete medium). Cells were cultured in 5% CO2 / 95% humidified air at 37 °C.
GBM cell lines were seeded at 38000 cells/well (SB2b) or 35,000 cells/well (PB1, JK2 and WK1) in 96-well matrigel-coated plates and incubated for 24 h at 37°C, 5% CO2 in humidified incubator in StemPro complete medium. Media was replaced with stimulation buffer (phenol red free F12 media, 0.1% BSA, 0.5 mM IBMX, pH 7.4). […] Intracellular cAMP levels in the wells were determined using Lance Ultra cAMP assay kit (Perkin Elmer) according to the manufacturer’s instructions and detected using an Envision multilabel 2103 reader. […] Data were analysed by three-parameter logistic curve and are presented as percentage of 10^− 5 M forskolin response.

CTR in SB2b cell line = biological target: T1, CTR in SB2b cell line (Homo sapiens, UniProt P30988); assay: cAMP accumulation, CTR agonists, SB2b; assay type: cell-based; settings: read-out: Emax, cAMP accumulation
T1 construct: only one of the studied cell lines expressed functional CTR; endogenous in cells; host or cells: SB2b patient-derived high-grade glioma cell line
T1 sequence (P30988 25-474): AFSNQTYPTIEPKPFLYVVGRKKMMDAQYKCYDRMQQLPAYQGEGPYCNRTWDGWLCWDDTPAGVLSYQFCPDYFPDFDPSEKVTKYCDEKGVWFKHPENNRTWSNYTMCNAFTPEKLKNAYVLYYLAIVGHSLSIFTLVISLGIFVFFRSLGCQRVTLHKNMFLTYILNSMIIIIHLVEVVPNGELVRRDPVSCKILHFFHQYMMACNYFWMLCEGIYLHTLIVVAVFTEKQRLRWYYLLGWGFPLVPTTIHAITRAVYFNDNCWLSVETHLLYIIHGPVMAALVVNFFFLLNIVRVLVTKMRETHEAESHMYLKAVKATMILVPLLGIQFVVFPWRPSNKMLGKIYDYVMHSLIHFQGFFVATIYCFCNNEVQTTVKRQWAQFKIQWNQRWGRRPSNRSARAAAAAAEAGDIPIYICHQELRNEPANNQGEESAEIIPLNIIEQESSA
Description: as §1, with “medium).” for “medium). Cells were cultured in 5% CO2 / 95% humidified air at 37 °C.”
GBM cell lines were seeded at 38000 cells/well (SB2b) or 35,000 cells/well (PB1, JK2 and WK1) in 96-well matrigel-coated plates and incubated for 24 h at 37°C, 5% CO2 in humidified incubator in StemPro complete medium. Media was replaced with stimulation buffer (phenol red free F12 media, 0.1% BSA, 0.5 mM IBMX, pH 7.4). […] Cells were lysed (0.3% Tween 20, 5 mM Hepes, 0.1% BSA, pH 7.4) and 5 μl of cell lysate from each well was transferred to a corresponding well of 384-well optiplate. […] Data were analysed by three-parameter logistic curve and are presented as percentage of 10^− 5 M forskolin response.

[4] = biological target: calcitonin receptor (human (endogenous in SB2b)) (UniProt P30988)
[5] = biological target: CGRP (CLR/RAMP1) receptor (human (endogenous in PB1, JK2 and WK1)) (UniProt Q16602)
JK2 cell line = assay: cAMP accumulation, CTR agonists, JK2; assay type: cell-based, human; settings: 1 μM antagonist
Description: as §1
(§2) GBM cell lines were seeded at 38000 cells/well (SB2b) or 35,000 cells/well (PB1, JK2 and WK1) in 96-well matrigel-coated plates and incubated for 24 h at 37°C, 5% CO2 in humidified incubator in StemPro complete medium. Media was replaced with stimulation buffer (phenol red free F12 media, 0.1% BSA, 0.5 mM IBMX, pH 7.4). […] Cells were lysed (0.3% Tween 20, 5 mM Hepes, 0.1% BSA, pH 7.4) and 5 μl of cell lysate from each well was transferred to a corresponding well of 384-well optiplate. Intracellular cAMP levels in the wells were determined using Lance Ultra cAMP assay kit (Perkin Elmer) according to the manufacturer’s instructions and detected using an Envision multilabel 2103 reader. Raw RFU values were converted using a cAMP standard curve to give absolute cAMP concentrations. Data were analysed by three-parameter logistic curve and are presented as percentage of 10^− 5 M forskolin response.

PB1 cell line [6] = assay: cAMP accumulation, CTR agonists, PB1; assay type: cell-based, human; settings: 1 μM antagonist
Description: as §1, §2

[7] = biological target: CGRP (CLR/RAMP1) receptor (human (endogenous in PB1, JK2 and WK1)) (UniProt Q16602); remark: listed apart in the source

CGRP (CLR/RAMP1) receptor (human (endogenous in PB1, JK2 and WK1)), sequence (Q16602 23-461, chain 1 of 2): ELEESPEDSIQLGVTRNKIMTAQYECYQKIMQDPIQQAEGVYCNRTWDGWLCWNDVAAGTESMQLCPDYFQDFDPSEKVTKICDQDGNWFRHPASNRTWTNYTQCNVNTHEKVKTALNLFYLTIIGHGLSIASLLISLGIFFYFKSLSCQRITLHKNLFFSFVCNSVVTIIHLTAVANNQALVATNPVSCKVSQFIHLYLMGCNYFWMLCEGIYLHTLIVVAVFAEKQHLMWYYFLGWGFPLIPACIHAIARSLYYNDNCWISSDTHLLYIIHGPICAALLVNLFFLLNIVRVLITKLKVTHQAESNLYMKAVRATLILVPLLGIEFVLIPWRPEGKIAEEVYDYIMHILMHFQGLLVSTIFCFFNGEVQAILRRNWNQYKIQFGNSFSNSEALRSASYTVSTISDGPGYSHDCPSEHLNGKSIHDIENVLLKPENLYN
CGRP (CLR/RAMP1) receptor (human (endogenous in PB1, JK2 and WK1)), sequence (O60894 27-148, chain 2 of 2, further chain): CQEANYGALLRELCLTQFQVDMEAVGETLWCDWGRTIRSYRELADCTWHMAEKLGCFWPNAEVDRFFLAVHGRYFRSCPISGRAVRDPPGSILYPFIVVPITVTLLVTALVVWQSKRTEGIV

Molecule: Nc1ncnc2c1ncn2[C@@H]1O[C@H](COP(=O)(O)OP(=O)(O)OP(=O)(O)O)[C@@H](O)[C@H]1O [ATP]
- intracellular Ca2+ mobilisation response (PB1 cell line [1]): robust response
- intracellular Ca2+ mobilisation response (SB2b cell line): robust response
- intracellular Ca2+ mobilisation response (WK1 cell line [2]): robust response

Molecule: C=C[C@@]1(C)CC(=O)[C@]2(O)[C@@]3(C)[C@@H](O)CCC(C)(C)[C@@H]3[C@H](O)[C@H](OC(C)=O)[C@@]2(C)O1 [forskolin]
- increase of basal cAMP (WK1 cell line [3]): 4 fold

Molecule: CC[C@H](C)[C@H](NC(=O)[C@H](C)NC(=O)[C@@H](NC(=O)[C@H](CCC(N)=O)NC(=O)[C@@H]1CCCN1C(=O)[C@H](Cc1ccccc1)NC(=O)[C@@H](NC(=O)[C@H](Cc1c[nH]cn1)NC(=O)[C@H](Cc1ccccc1)NC(=O)[C@H](CCCCN)NC(=O)[C@H](CC(N)=O)NC(=O)[C@H](Cc1ccccc1)NC(=O)[C@H](CC(=O)O)NC(=O)[C@H](CCC(N)=O)NC(=O)[C@@H](NC(=O)[C@H](Cc1ccc(O)cc1)NC(=O)[C@@H](NC(=O)CNC(=O)[C@H](CC(C)C)NC(=O)[C@H](CCSC)NC(=O)[C@@H]1CSSC[C@H](N)C(=O)NCC(=O)N[C@@H](CC(N)=O)C(=O)N[C@@H](CC(C)C)C(=O)N[C@@H](CO)C(=O)N[C@@H]([C@@H](C)O)C(=O)N1)[C@@H](C)O)[C@@H](C)O)[C@@H](C)O)[C@@H](C)O)C(=O)NCC(=O)N[C@H](C(=O)NCC(=O)N[C@@H](C)C(=O)N1CCC[C@H]1C(N)=O)C(C)C [hCT, Human CT]
- Emax (CTR in SB2b cell line): 43%

Molecule: C[C@H](CCC(=O)O)C[C@H](C)C[C@H](C)C(=O)/C=C(\O)[C@H](C)C[C@H](C)C/C=C/[C@@H](C)[C@@H](O)[C@@H](C)[C@@H](O)C[C@@H]1CC[C@@](C)([C@H]2CC[C@@](C)([C@@H](C)O)O2)O1 [ionomycin]
- intracellular Ca2+ mobilisation response (PB1 cell line [1]): robust response
- intracellular Ca2+ mobilisation response (SB2b cell line): robust response
- intracellular Ca2+ mobilisation response (WK1 cell line [2]): robust response

Molecule: CC(C)C[C@H](NC(=O)[C@H](CCCCN)NC(=O)CNC(=O)[C@H](CC(C)C)NC(=O)[C@@H](NC(=O)[C@@H]1CSSC[C@H](N)C(=O)N[C@@H](CO)C(=O)N[C@@H](CC(N)=O)C(=O)N[C@@H](CC(C)C)C(=O)N[C@@H](CO)C(=O)N[C@@H]([C@@H](C)O)C(=O)N1)C(C)C)C(=O)N[C@@H](CO)C(=O)N[C@@H](CCC(N)=O)C(=O)N[C@@H](CCC(=O)O)C(=O)N[C@@H](CC(C)C)C(=O)N[C@@H](Cc1c[nH]cn1)C(=O)N[C@@H](CCCCN)C(=O)N[C@@H](CC(C)C)C(=O)N[C@@H](CCC(N)=O)C(=O)N[C@H](C(=O)N[C@@H](Cc1ccc(O)cc1)C(=O)N1CCC[C@H]1C(=O)N[C@@H](CCCNC(=N)N)C(=O)N[C@H](C(=O)N[C@@H](CC(N)=O)C(=O)N[C@H](C(=O)NCC(=O)N[C@@H](CO)C(=O)NCC(=O)N[C@H](C(=O)N1CCC[C@H]1C(N)=O)[C@@H](C)O)[C@@H](C)O)[C@@H](C)O)[C@@H](C)O [sCT, Salmon CT]
- Emax (CTR in SB2b cell line): 35%

- Emax of cAMP accumulation in SB2b cells (% of forskolin) [4]: 43
Molecule: human calcitonin (from UniProt P01258 85-116) (peptide)

- Emax of cAMP accumulation in SB2b cells (% of forskolin) [4]: 35
- pEC50 of cAMP accumulation (30 min) in SB2b cells [4]: 9.4 pEC50
Molecule: salmon calcitonin (peptide)

- shift of the cAMP potency of αCGRP by 1 μM αCGRP(8–37) in PB1, JK2 and WK1 cells; blocks m4 + m8 [5]: 100 fold
Molecule: αCGRP(8–37) (peptide)

Molecule: αCGRP(8–37): CGRP receptor antagonist (VTHRLAGLLSRSGGVVKNNFVPTNVGSKAF; ends and bridges not checked; UniProt P06881 90-119, looked up, fragment)
- effect of antagonist on amylin cAMP response (JK2 cell line): abolishing this response
- effect of antagonist on amylin cAMP response (PB1 cell line [6]): abolishing this response

- pEC50 of cAMP accumulation (30 min) in JK2 cells [5]: 7 pEC50
- pEC50 of cAMP accumulation (30 min) in PB1 cells [5]: 7.3 pEC50
- pEC50 of cAMP accumulation (30 min) in WK1 cells [5]: 6.8 pEC50
- pEC50 of cAMP accumulation to AM alone, antagonist experiment, JK2 cells [5]: 7.2 pEC50
- pEC50 of cAMP accumulation to AM alone, antagonist experiment, PB1 cells [5]: 7.2 pEC50
- pEC50 of cAMP accumulation to AM alone, antagonist experiment, WK1 cells [5]: 6.9 pEC50
- pEC50 of cAMP accumulation to AM with 1 μM AM(22–52), JK2 cells [5]: 7.3 pEC50
- pEC50 of cAMP accumulation to AM with 1 μM AM(22–52), PB1 cells [5]: 7.1 pEC50
- pEC50 of cAMP accumulation to AM with 1 μM AM(22–52), WK1 cells [5]: 6.7 pEC50
B1: adrenomedullin (peptide)
peptide: YRQSMNNFQGLRSFGCRFGTCTVQKLAHQIYQFTDKDKDNVAPRSKISPQGY

- pEC50 of cAMP accumulation (30 min) in JK2 cells [7]: 5.9 pEC50
- pEC50 of cAMP accumulation (30 min) in PB1 cells [7]: 6.1 pEC50
- pEC50 of cAMP accumulation (30 min) in SB2b cells [4]: 6.8 pEC50
Molecule: KCNTATCATQRLANFLVRSSNNLGPVLPPTNVGSNTY [amylin (rAmy)]
